In the assay the target is dominant negative RACB-T20N, split-YFP fusion for BiFC (barley (Hordeum vulgare)). As to the kind of experiment: split reporter.

“RIPb, full length, split-YFP fusion for BiFC (natural protein)”: the BiFC signal relative to that with CA RACB is less than 10%.
